No end group written: not given here.
Key:
[1] = molecular target: endothelial cell receptor for TKPPR on human aortic endothelial cells (HAEC); experiment: 2% BRU-114 bubbles on HAEC, static, no competitor
[2] = molecular target: endothelial cell receptor for TKPPR on human aortic endothelial cells (HAEC); experiment: 1% BRU-114 bubbles on HAEC, static, no competitor, average of duplicates
[3] = molecular target: endothelial cell receptor for TKPPR on human aortic endothelial cells (HAEC); experiment: 10% BRU-114 bubbles on HAEC, static, no competitor
[4] = molecular target: endothelial cell receptor for TKPPR on human aortic endothelial cells (HAEC); experiment: microbubbles with 5% BRU-114 on HAEC, static inverted culture
[5] = molecular target: endothelial cell receptor for TKPPR on human aortic endothelial cells (HAEC); experiment: microbubbles with 1% BRU-114 on HAEC, static, no competitor
[6] = molecular target: endothelial cell receptor for TKPPR on human aortic endothelial cells (HAEC); experiment: microbubbles on HAEC, static, manual count, 5% against 1% BRU-114
[7] = molecular target: KB cells (human epidermoid carcinoma cell line), cell surface; experiment: 5% BRU-114 bubbles on KB cells, static
[8] = molecular target: endothelial cell receptor for TKPPR on human aortic endothelial cells (HAEC); experiment: microbubbles with 5% BRU-114 on HAEC, static, no competitor
[9] = molecular target: endothelial cell receptor for TKPPR on human aortic endothelial cells (HAEC); experiment: 5% BRU-114 bubbles on HAEC, static
[10] = molecular target: endothelial cell receptor for TKPPR on human aortic endothelial cells (HAEC); experiment: 2% BRU-114 bubbles on HAEC, static, no competitor, average of duplicates
[11] = molecular target: endothelial cell receptor for TKPPR on human aortic endothelial cells (HAEC); experiment: 5% BRU-114 bubbles on HAEC, static, cells pretreated 4 h with 1 ng/mL TNFα
[12] = molecular target: endothelial cell receptor for TKPPR on human aortic endothelial cells (HAEC); experiment: 5% BRU-114 bubbles on HAEC, static, no competitor (same control as the 20th table)
[13] = molecular target: endothelial cell receptor for TKPPR on human aortic endothelial cells (HAEC); experiment: 5% BRU-114 bubbles on HAEC, static, cells pretreated 4 h with 0 ng/mL TNFα
[14] = molecular target: receptor for TKPPR on rabbit aortic endothelial cells (RAEC); experiment: 5% BRU-114 bubbles on RAEC, static, no competitor
[15] = molecular target: endothelial cell receptor for TKPPR on human aortic endothelial cells (HAEC); experiment: 5% BRU-114 bubbles on HAEC, static, no competitor
[16] = molecular target: endothelial cell receptor for TKPPR on human aortic endothelial cells (HAEC); experiment: 1% BRU-114 bubbles on HAEC, static, no competitor
[17] = molecular target: endothelial cell receptor for TKPPR on human aortic endothelial cells (HAEC); experiment: 5% BRU-114 bubbles on HAEC, static, cells pretreated 4 h with 10 ng/mL TNFα
[18] = molecular target: endothelial cell receptor for TKPPR on human aortic endothelial cells (HAEC); experiment: 5% BRU-114 bubbles on HAEC, static, cells pretreated 4 h with 5 ng/mL TNFα
[19] = molecular target: endothelial cell receptor for TKPPR on human aortic endothelial cells (HAEC); experiment: 5% BRU-114 bubbles on HAEC, static, no competitor (control)

B1: DPPE-Glu-GTKPPR (BRU-114) in gas-filled microbubbles (peptide)
peptide: GTKPPR-OH
modifications: not fully specified (N-terminus); also: built into phospholipid gas-filled microbubbles
- Bubbles Bound % [1]: 100 % of control
- Bubbles Bound [2]: 737 bubbles
- Bubbles Bound-10% [3]: 1860 bubbles
- Bubbles Bound [4]: 7050 bubbles
- bubbles bound, no competition [5]: 555 bubbles
- % more bubbles bound than with the 1% composition [6]: 31%
- KB cell bubble binding [7]: 56 bubbles
- bubbles bound, no competition [8]: 726 bubbles
- HAEC bubble binding [9]: 1120 bubbles
- Bubbles Bound [10]: 953 bubbles
- TKPPR-Bubbles bound [11]: 1520 bubbles
- Bubbles Bound [12]: 1250 bubbles
- TKPPR-Bubbles bound [13]: 950 bubbles
- RAEC bubbles bound [14]: 751 bubbles
- Bubbles Bound-5% [15]: 2780 bubbles
- HAEC bubbles bound [15]: 1420 bubbles
- Bubbles Bound-1% [16]: 1640 bubbles
- TKPPR-Bubbles bound [17]: 1020 bubbles
- TKPPR-Bubbles bound [18]: 1360 bubbles
- Bubbles Bound [19]: 1250 bubbles

— patent US7109167
